Source: article PMC8218686

Tested on: T1, YhjC-His6 (Shigella flexneri (serotype 5a M90T?)), ORF:c5ce7ff9
T1 sequence: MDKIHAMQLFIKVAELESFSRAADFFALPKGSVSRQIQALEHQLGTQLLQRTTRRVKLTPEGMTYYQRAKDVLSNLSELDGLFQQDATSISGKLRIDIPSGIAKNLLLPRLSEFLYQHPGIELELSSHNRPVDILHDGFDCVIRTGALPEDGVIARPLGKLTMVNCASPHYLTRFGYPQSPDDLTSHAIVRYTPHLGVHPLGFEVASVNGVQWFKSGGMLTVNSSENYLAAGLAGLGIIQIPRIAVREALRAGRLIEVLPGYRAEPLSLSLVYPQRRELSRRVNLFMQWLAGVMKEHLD
Assay: EMSA
Details: 20 mM Tris-HCl pH 7.5, 50 mM KCl, 1 mM EDTA, 1 mM DTT, 5% glycerol

GGTTATAGTCCCTTTCAGTGCAAATACTTAGCTTGTTGCACAGAGAAATAGAAGCTGCATAAGCTCTTTCTTCAAAAAATGTAAATAAAGTTAAATATAGGAAAAATTACTTAATCTATCTTAATAACGGAAAGATTTTGTATACAATCACTGTTACAGAAATTTCTTAGTTACTCTGTAAACACTAAATATAGTTTGGTATATTCTGTTGAATTTATGATGGATATGGGACATAAAAACAAAATAGATATAAAGGTTCGCTTGCATAAC (double strand) [virF promoter (PvirF)]
binding: binds
